Reference: IntAct's records for PubMed 17237231

B1: Macrophage scavenger receptor types I and II (Homo sapiens), P21757 (parent)
chain: MEQWDHFHNQQEDTDSCSESVKFDARSMTALLPPNPKNSPSLQEKLKSFKAALIALYLLVFAVLIPLIGIVAAQLLKWETKNCSVSSTNANDITQSLTGKGNDSEEEMRFQEVFMEHMSNMEKRIQHILDMEANLMDTEHFQNFSMTTDQRFNDILLQLSTLFSSVQGHGNAIDEISKSLISLNTTLLDLQLNIENLNGKIQENTFKQQEEISKLEERVYNVSAEIMAMKEEQVHLEQEIKGEVKVLNNITNDLRLKDWEHSQTLRNITLIQGPPGPPGEKGDRGPTGESGPRGFPGPIGPPGLKGDRGAIGFPGSRGLPGYAGRPGNSGPKGQKGEKGSGNTLTPFTKVRLVGGSGPHEGRVEILHSGQWGTICDDRWEVRVGQVVCRSLGYPGVQAVHKAAHFGQGTGPIWLNEVFCFGRESSIEECKIRQWGTRACSHSEDAGVTCTL
partner: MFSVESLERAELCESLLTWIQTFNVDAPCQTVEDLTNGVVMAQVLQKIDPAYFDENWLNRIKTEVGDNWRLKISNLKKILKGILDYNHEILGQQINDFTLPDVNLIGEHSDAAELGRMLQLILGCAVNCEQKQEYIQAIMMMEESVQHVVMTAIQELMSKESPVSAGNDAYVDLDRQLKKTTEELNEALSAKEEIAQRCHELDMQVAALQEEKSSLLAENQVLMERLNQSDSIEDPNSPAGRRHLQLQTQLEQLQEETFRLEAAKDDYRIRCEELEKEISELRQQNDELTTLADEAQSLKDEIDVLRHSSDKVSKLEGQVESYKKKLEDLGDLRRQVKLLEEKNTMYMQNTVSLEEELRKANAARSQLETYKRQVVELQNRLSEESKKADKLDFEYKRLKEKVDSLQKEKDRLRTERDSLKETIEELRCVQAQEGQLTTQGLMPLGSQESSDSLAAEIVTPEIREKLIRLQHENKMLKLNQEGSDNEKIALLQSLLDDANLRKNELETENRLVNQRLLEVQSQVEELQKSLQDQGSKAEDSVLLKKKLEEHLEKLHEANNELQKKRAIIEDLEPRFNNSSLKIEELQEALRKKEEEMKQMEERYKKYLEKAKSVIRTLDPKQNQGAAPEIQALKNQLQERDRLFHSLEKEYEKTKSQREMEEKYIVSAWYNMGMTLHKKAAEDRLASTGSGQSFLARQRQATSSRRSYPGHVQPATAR

Variants of: B1
Conditions: with hook3_human HOOK3, Q86VS8

Question: How did the “effect of a mutation on the interaction” value turn out when E12A;D13A;D15A was run?
Answer: The value was “disrupting interaction”.
